In this series the target is T1, UHRF1 wild-type (human) (UniProt Q96T88).
T1 sequence: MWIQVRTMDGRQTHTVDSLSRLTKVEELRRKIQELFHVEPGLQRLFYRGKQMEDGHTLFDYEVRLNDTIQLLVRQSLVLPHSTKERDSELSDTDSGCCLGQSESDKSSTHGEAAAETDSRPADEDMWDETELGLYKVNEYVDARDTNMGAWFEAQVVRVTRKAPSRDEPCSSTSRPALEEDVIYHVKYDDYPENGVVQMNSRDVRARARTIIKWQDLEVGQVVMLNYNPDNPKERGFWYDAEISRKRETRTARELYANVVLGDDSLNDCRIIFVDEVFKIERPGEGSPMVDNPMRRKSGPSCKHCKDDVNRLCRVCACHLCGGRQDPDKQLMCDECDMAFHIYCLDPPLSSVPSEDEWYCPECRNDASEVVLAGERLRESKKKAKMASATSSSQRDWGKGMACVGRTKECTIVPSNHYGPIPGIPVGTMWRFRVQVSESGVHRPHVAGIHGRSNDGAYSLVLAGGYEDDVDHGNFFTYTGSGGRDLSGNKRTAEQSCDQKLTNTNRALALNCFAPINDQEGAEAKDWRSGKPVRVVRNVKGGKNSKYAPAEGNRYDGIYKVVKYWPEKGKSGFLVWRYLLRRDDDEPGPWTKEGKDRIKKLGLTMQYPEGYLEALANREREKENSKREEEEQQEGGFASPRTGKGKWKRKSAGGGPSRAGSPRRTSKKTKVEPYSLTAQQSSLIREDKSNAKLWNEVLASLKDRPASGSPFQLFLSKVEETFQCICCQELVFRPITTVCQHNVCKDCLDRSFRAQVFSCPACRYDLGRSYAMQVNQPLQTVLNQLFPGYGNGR
In words: fluorescence polarization. To be noted: 50 mM vs 150 mM NaCl; 5mC at position 6 of strand 2 (GTCAG5mCGCATGG); 25 mM HEPES pH 7.5, 0.05% NP-40, 100 mM NaCl (unless indicated), 10 nM FAM-DNA, 10 min, 25 C; scale: fold affinity difference between 50 and 150 mM NaCl.

In PMC5012860 one finds binding signal data, which are given here for one sequence.

As for CCATGCGCTGAC (double strand) [HeDNA], the binding signal was 500.
